Measured values: patent US20220298218A1 (ANTAG THERAPEUTICS, published 2022)
*1 amine or outer side, *2 acyl side, *3 side chain or, on linkers, in order; H or OH if unused. Where no end group is shown, it is not given here. Side-chain parts run from the residue outwards. The star is where a group is joined. C18 diacid = O=C(O)CCCCCCCCCCCCCCCCC(=O)*; C16 diacid = O=C(O)CCCCCCCCCCCCCCC(=O)*; γGlu = O=C(O)[C@H](CCC(=O)[*:2])N[*:1]; AEEA = NCCOCCOCC(=O)O

B1: AT475 (peptide)
peptide: FISDYSIAMDKIK(C16 diacid)QQDFVNWLLAQKGPSSGAPPPS-OH
modifications: N-terminus assumed
SMILES: CC[C@H](C)[C@H](NC(=O)[C@H](CO)NC(=O)[C@H](Cc1ccc(O)cc1)NC(=O)[C@H](CC(=O)O)NC(=O)[C@H](CO)NC(=O)[C@@H](NC(=O)[C@@H](N)Cc1ccccc1)[C@@H](C)CC)C(=O)N[C@@H](C)C(=O)N[C@@H](CCSC)C(=O)N[C@@H](CC(=O)O)C(=O)N[C@@H](CCCCN)C(=O)N[C@H](C(=O)N[C@@H](CCCCNC(=O)CCCCCCCCCCCCCCC(=O)O)C(=O)N[C@@H](CCC(N)=O)C(=O)N[C@@H](CCC(N)=O)C(=O)N[C@@H](CC(=O)O)C(=O)N[C@@H](Cc1ccccc1)C(=O)N[C@H](C(=O)N[C@@H](CC(N)=O)C(=O)N[C@@H](Cc1c[nH]c2ccccc12)C(=O)N[C@@H](CC(C)C)C(=O)N[C@@H](CC(C)C)C(=O)N[C@@H](C)C(=O)N[C@@H](CCC(N)=O)C(=O)N[C@@H](CCCCN)C(=O)NCC(=O)N1CCC[C@H]1C(=O)N[C@@H](CO)C(=O)N[C@@H](CO)C(=O)NCC(=O)N[C@@H](C)C(=O)N1CCC[C@H]1C(=O)N1CCC[C@H]1C(=O)N1CCC[C@H]1C(=O)N[C@@H](CO)C(=O)O)C(C)C)[C@@H](C)CC
B2: AT364 (peptide)
peptide: EGTFISDYSIAMDKIK(C16 diacid)QQDFVNWLLAQKGPSSGAPPPS-OH
modifications: N-terminus assumed
SMILES: CC[C@H](C)[C@H](NC(=O)[C@H](CO)NC(=O)[C@H](Cc1ccc(O)cc1)NC(=O)[C@H](CC(=O)O)NC(=O)[C@H](CO)NC(=O)[C@@H](NC(=O)[C@H](Cc1ccccc1)NC(=O)[C@@H](NC(=O)CNC(=O)[C@@H](N)CCC(=O)O)[C@@H](C)O)[C@@H](C)CC)C(=O)N[C@@H](C)C(=O)N[C@@H](CCSC)C(=O)N[C@@H](CC(=O)O)C(=O)N[C@@H](CCCCN)C(=O)N[C@H](C(=O)N[C@@H](CCCCNC(=O)CCCCCCCCCCCCCCC(=O)O)C(=O)N[C@@H](CCC(N)=O)C(=O)N[C@@H](CCC(N)=O)C(=O)N[C@@H](CC(=O)O)C(=O)N[C@@H](Cc1ccccc1)C(=O)N[C@H](C(=O)N[C@@H](CC(N)=O)C(=O)N[C@@H](Cc1c[nH]c2ccccc12)C(=O)N[C@@H](CC(C)C)C(=O)N[C@@H](CC(C)C)C(=O)N[C@@H](C)C(=O)N[C@@H](CCC(N)=O)C(=O)N[C@@H](CCCCN)C(=O)NCC(=O)N1CCC[C@H]1C(=O)N[C@@H](CO)C(=O)N[C@@H](CO)C(=O)NCC(=O)N[C@@H](C)C(=O)N1CCC[C@H]1C(=O)N1CCC[C@H]1C(=O)N1CCC[C@H]1C(=O)N[C@@H](CO)C(=O)O)C(C)C)[C@@H](C)CC
B3: AT422 (peptide)
peptide: SGTFISDYSIAMDKIK([AEEA-AEEA-AEEA-γGlu-C18 diacid])QQDFVNWLLAQKGKKNDW-OH
modifications: N-terminus assumed
SMILES: CC[C@H](C)[C@H](NC(=O)[C@H](CO)NC(=O)[C@H](Cc1ccc(O)cc1)NC(=O)[C@H](CC(=O)O)NC(=O)[C@H](CO)NC(=O)[C@@H](NC(=O)[C@H](Cc1ccccc1)NC(=O)[C@@H](NC(=O)CNC(=O)[C@@H](N)CO)[C@@H](C)O)[C@@H](C)CC)C(=O)N[C@@H](C)C(=O)N[C@@H](CCSC)C(=O)N[C@@H](CC(=O)O)C(=O)N[C@@H](CCCCN)C(=O)N[C@H](C(=O)N[C@@H](CCCCNC(=O)COCCOCCNC(=O)COCCOCCNC(=O)COCCOCCNC(=O)CC[C@H](NC(=O)CCCCCCCCCCCCCCCCC(=O)O)C(=O)O)C(=O)N[C@@H](CCC(N)=O)C(=O)N[C@@H](CCC(N)=O)C(=O)N[C@@H](CC(=O)O)C(=O)N[C@@H](Cc1ccccc1)C(=O)N[C@H](C(=O)N[C@@H](CC(N)=O)C(=O)N[C@@H](Cc1c[nH]c2ccccc12)C(=O)N[C@@H](CC(C)C)C(=O)N[C@@H](CC(C)C)C(=O)N[C@@H](C)C(=O)N[C@@H](CCC(N)=O)C(=O)N[C@@H](CCCCN)C(=O)NCC(=O)N[C@@H](CCCCN)C(=O)N[C@@H](CCCCN)C(=O)N[C@@H](CC(N)=O)C(=O)N[C@@H](CC(=O)O)C(=O)N[C@@H](Cc1c[nH]c2ccccc12)C(=O)O)C(C)C)[C@@H](C)CC
B4: AT365 (peptide)
peptide: TFISDYKIAMDKIHQQDFVNWLLAQKGKK
HELM: PEPTIDE1{T.F.I.S.D.Y.K.I.A.M.D.K.I.H.Q.Q.D.F.V.N.W.L.L.A.Q.K.G.K.K}|PEPTIDE2{[O=C(O)CCCCCCCCCCCCCCC(=O)[*:2]].[gGlu]}$PEPTIDE1,PEPTIDE2,7:R3-2:R2$$$V2.0; N-terminus assumed
SMILES: CC[C@H](C)[C@H](NC(=O)[C@H](CCCCNC(=O)CC[C@H](NC(=O)CCCCCCCCCCCCCCC(=O)O)C(=O)O)NC(=O)[C@H](Cc1ccc(O)cc1)NC(=O)[C@H](CC(=O)O)NC(=O)[C@H](CO)NC(=O)[C@@H](NC(=O)[C@H](Cc1ccccc1)NC(=O)[C@@H](N)[C@@H](C)O)[C@@H](C)CC)C(=O)N[C@@H](C)C(=O)N[C@@H](CCSC)C(=O)N[C@@H](CC(=O)O)C(=O)N[C@@H](CCCCN)C(=O)N[C@H](C(=O)N[C@@H](Cc1c[nH]cn1)C(=O)N[C@@H](CCC(N)=O)C(=O)N[C@@H](CCC(N)=O)C(=O)N[C@@H](CC(=O)O)C(=O)N[C@@H](Cc1ccccc1)C(=O)N[C@H](C(=O)N[C@@H](CC(N)=O)C(=O)N[C@@H](Cc1c[nH]c2ccccc12)C(=O)N[C@@H](CC(C)C)C(=O)N[C@@H](CC(C)C)C(=O)N[C@@H](C)C(=O)N[C@@H](CCC(N)=O)C(=O)N[C@@H](CCCCN)C(=O)NCC(=O)N[C@@H](CCCCN)C(=O)N[C@@H](CCCCN)C(=O)O)C(C)C)[C@@H](C)CC
B5: AT366 (peptide)
peptide: TFISDYKIAMDKIHQQDFVNWLLAQKGKKNDW
HELM: PEPTIDE1{T.F.I.S.D.Y.K.I.A.M.D.K.I.H.Q.Q.D.F.V.N.W.L.L.A.Q.K.G.K.K.N.D.W}|PEPTIDE2{[O=C(O)CCCCCCCCCCCCCCC(=O)[*:2]].[gGlu]}$PEPTIDE1,PEPTIDE2,7:R3-2:R2$$$V2.0; N-terminus assumed
SMILES: CC[C@H](C)[C@H](NC(=O)[C@H](CCCCNC(=O)CC[C@H](NC(=O)CCCCCCCCCCCCCCC(=O)O)C(=O)O)NC(=O)[C@H](Cc1ccc(O)cc1)NC(=O)[C@H](CC(=O)O)NC(=O)[C@H](CO)NC(=O)[C@@H](NC(=O)[C@H](Cc1ccccc1)NC(=O)[C@@H](N)[C@@H](C)O)[C@@H](C)CC)C(=O)N[C@@H](C)C(=O)N[C@@H](CCSC)C(=O)N[C@@H](CC(=O)O)C(=O)N[C@@H](CCCCN)C(=O)N[C@H](C(=O)N[C@@H](Cc1c[nH]cn1)C(=O)N[C@@H](CCC(N)=O)C(=O)N[C@@H](CCC(N)=O)C(=O)N[C@@H](CC(=O)O)C(=O)N[C@@H](Cc1ccccc1)C(=O)N[C@H](C(=O)N[C@@H](CC(N)=O)C(=O)N[C@@H](Cc1c[nH]c2ccccc12)C(=O)N[C@@H](CC(C)C)C(=O)N[C@@H](CC(C)C)C(=O)N[C@@H](C)C(=O)N[C@@H](CCC(N)=O)C(=O)N[C@@H](CCCCN)C(=O)NCC(=O)N[C@@H](CCCCN)C(=O)N[C@@H](CCCCN)C(=O)N[C@@H](CC(N)=O)C(=O)N[C@@H](CC(=O)O)C(=O)N[C@@H](Cc1c[nH]c2ccccc12)C(=O)O)C(C)C)[C@@H](C)CC
B6: AT423 (peptide)
peptide: SGTFISDYSIAMDRIK([AEEA-AEEA-γGlu-C16 diacid])QQDFVNWLLAQRGRRNDW-OH
modifications: N-terminus assumed
SMILES: CC[C@H](C)[C@H](NC(=O)[C@H](CO)NC(=O)[C@H](Cc1ccc(O)cc1)NC(=O)[C@H](CC(=O)O)NC(=O)[C@H](CO)NC(=O)[C@@H](NC(=O)[C@H](Cc1ccccc1)NC(=O)[C@@H](NC(=O)CNC(=O)[C@@H](N)CO)[C@@H](C)O)[C@@H](C)CC)C(=O)N[C@@H](C)C(=O)N[C@@H](CCSC)C(=O)N[C@@H](CC(=O)O)C(=O)N[C@@H](CCCNC(=N)N)C(=O)N[C@H](C(=O)N[C@@H](CCCCNC(=O)COCCOCCNC(=O)COCCOCCNC(=O)CC[C@H](NC(=O)CCCCCCCCCCCCCCC(=O)O)C(=O)O)C(=O)N[C@@H](CCC(N)=O)C(=O)N[C@@H](CCC(N)=O)C(=O)N[C@@H](CC(=O)O)C(=O)N[C@@H](Cc1ccccc1)C(=O)N[C@H](C(=O)N[C@@H](CC(N)=O)C(=O)N[C@@H](Cc1c[nH]c2ccccc12)C(=O)N[C@@H](CC(C)C)C(=O)N[C@@H](CC(C)C)C(=O)N[C@@H](C)C(=O)N[C@@H](CCC(N)=O)C(=O)N[C@@H](CCCNC(=N)N)C(=O)NCC(=O)N[C@@H](CCCNC(=N)N)C(=O)N[C@@H](CCCNC(=N)N)C(=O)N[C@@H](CC(N)=O)C(=O)N[C@@H](CC(=O)O)C(=O)N[C@@H](Cc1c[nH]c2ccccc12)C(=O)O)C(C)C)[C@@H](C)CC

Molecular target: T1, human GIP receptor (human, UniProt P48546 22-466)
T1 sequence (looked up): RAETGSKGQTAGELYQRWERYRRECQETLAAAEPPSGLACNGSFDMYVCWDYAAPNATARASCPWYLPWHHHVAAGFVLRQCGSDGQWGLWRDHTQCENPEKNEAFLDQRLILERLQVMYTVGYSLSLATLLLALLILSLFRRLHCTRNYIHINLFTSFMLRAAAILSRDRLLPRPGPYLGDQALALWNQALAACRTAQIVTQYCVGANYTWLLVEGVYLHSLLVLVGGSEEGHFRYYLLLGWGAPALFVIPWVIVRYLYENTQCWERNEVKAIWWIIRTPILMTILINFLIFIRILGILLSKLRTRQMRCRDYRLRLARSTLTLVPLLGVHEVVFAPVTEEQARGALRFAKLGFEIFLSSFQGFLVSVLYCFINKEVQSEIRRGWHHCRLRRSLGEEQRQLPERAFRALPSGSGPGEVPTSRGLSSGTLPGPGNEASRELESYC
Assay: cell-based or functional assay

| Binder | cAMP antagonism | cAMP antagonism % inhib | cAMP antagonism log | cAMP agonism Emax |
| --- | --- | --- | --- | --- |
| B1 | 4 nM | 100% | -8.4 log M |  |
| B2 | 1 nM | 100% | -8.9 log M |  |
| B3 | 3 nM | 90% | -8.5 log M | 6 |
| B4 | 6 nM | 100% | -8.2 log M |  |
| B5 | 3 nM | 100% | -8.5 log M |  |
| B6 | 6 nM | 95% | -8.2 log M |  |

Molecular target: T1, human GIP receptor
Assay: cell-based or functional assay
Remark: another data set of the same source

| Binder | cAMP agonism % Emax | cAMP antagonism | cAMP antagonism % inhib | cAMP antagonism pIC50 |
| --- | --- | --- | --- | --- |
| B1 | 0% | 7.9 nM | 96% | 8.1 |
| B2 | 0% | 13.8 nM | 87% | 7.9 |
| B3 | 0% | 3.69 nM | 94% | 8.4 |
| B4 | 0% | 13.6 nM | 100% | 7.9 |
| B5 | 0% | 17.8 nM | 100% | 7.8 |
| B6 | 0% | 79.4 nM | 71% | 7.1 |
